Results reported in patent US12077763B2, “RNA-based control of powdery mildew” (Greenlight Biosciences, Inc., priority 2021, dated 2024).

Tested on: E. necator
Assay: Leaf disc assay, dry inoculum (settling tower), decrease in disease severity / hyphal growth (Example 2)
Details: decrease in disease severity (hyphal growth) relative to untreated control, value ± SE; for % decrease =/− SE TP1: time point 1 (untreated control hyphal growth ≥50%); for % decrease =/− SE TP2: time point 2

B1: GS3937 (nucleic acid)
sense: CAUCUCAACGACUUUGUAGAAUAAAUCAUAGUGAGAUACAGGACUGUGUAGAAAUGCCUCACCACAACAUAAAGAUAAGGCAAUUAAAUUAACUAGAUUGUCAAUCAAAAUAUCAAUAUUUUUUAAGCCCCUCAAGUCUGAUGUGUAUGUGGUGAGAAACCGAACAAGAGAAAGCAGUGAUCUAUAUAGUUCAGACCAGUGAUAUUUCAAUCGUGUCCGUGACCGAGAUAGGUAUGAUAAUAUACUAUAAAUGAUACCAAUGCAAAGAAUAUAUAAAUCAACAUCCAGUCGUCGUCUUAGAUUGUGAUUGAUUCCAUCAAGCAUCGCAUCAAGAAGAAUAGCAGCAAUCGAUCUAUCUCCAUGAACAUAAGGAAGGUACGGAGAUUUUUGUCGACAUA
antisense: UAUGUCGACAAAAAUCUCCGUACCUUCCUUAUGUUCAUGGAGAUAGAUCGAUUGCUGCUAUUCUUCUUGAUGCGAUGCUUGAUGGAAUCAAUCACAAUCUAAGACGACGACUGGAUGUUGAUUUAUAUAUUCUUUGCAUUGGUAUCAUUUAUAGUAUAUUAUCAUACCUAUCUCGGUCACGGACACGAUUGAAAUAUCACUGGUCUGAACUAUAUAGAUCACUGCUUUCUCUUGUUCGGUUUCUCACCACAUACACAUCAGACUUGAGGGGCUUAAAAAAUAUUGAUAUUUUGAUUGACAAUCUAGUUAAUUUAAUUGCCUUAUCUUUAUGUUGUGGUGAGGCAUUUCUACACAGUCCUGUAUCUCACUAUGAUUUAUUCUACAAAGUCGUUGAGAUG
% decrease =/− SE TP1: 12 ± 5%

B2: GS3931 (nucleic acid)
sense: AUCAAUUUUUCAUUCUCCCUAAUAGAUUUGAUAUCCCGUUCUUUGAGAUAACUUAAUUCCUCUUUUAUGUCUUUUAGCUUUUUUUCUGCAGUCGCAAUUAGAGUCUCUUUUUCAGCAAUUUGAUCUUGAAGCUCAUUUUCUCUUUUUAAAAACUCUUCACGAUCAUCUUUUUCUAAUGCAAUUGGCGUAGAUGAGCGAUCUAAUAACGUUGAAGCUUCCGAUCUAGAUUCUACCUGCAGCCUAGAAGGAGUUGCAGGUCUUGGUGUUUUUAUUUUAGAAAGAUUAGCAGUAUCUAAAGGUGGUACCCAUUUUUCUUUAGGCACACUAUCUCCAGACCUCCACUGCUGAACUUCUGCAUCAAGUGUCUGUACAUAUUGUUCAAAUGUAGUAA
antisense: UUACUACAUUUGAACAAUAUGUACAGACACUUGAUGCAGAAGUUCAGCAGUGGAGGUCUGGAGAUAGUGUGCCUAAAGAAAAAUGGGUACCACCUUUAGAUACUGCUAAUCUUUCUAAAAUAAAAACACCAAGACCUGCAACUCCUUCUAGGCUGCAGGUAGAAUCUAGAUCGGAAGCUUCAACGUUAUUAGAUCGCUCAUCUACGCCAAUUGCAUUAGAAAAAGAUGAUCGUGAAGAGUUUUUAAAAAGAGAAAAUGAGCUUCAAGAUCAAAUUGCUGAAAAAGAGACUCUAAUUGCGACUGCAGAAAAAAAGCUAAAAGACAUAAAAGAGGAAUUAAGUUAUCUCAAAGAACGGGAUAUCAAAUCUAUUAGGGAGAAUGAAAAAUUGAU
% decrease =/− SE TP1: 14 ± 4%

B3: GS3938 (nucleic acid)
sense: AUCGGCAAAAGUAAUGCUUCAAAAGCUGAUACAAAGACUAUAUGGAGAGGAGCUUUAAAUAUAUUGGAAGACUUAAAAAACGCAGAAAAGGAUUGGAGAUUUGGGAAAACUGAAAUUGUAGGGUUUGACAUUGAGAGAGAGAACCAAAUAGAUUGCCCUCAAAGUGAUAUGGAAAUCUUGCAGCAACAGUCAAGCAACACUGCAAGCUAUGCCAAUAAUUUCACCUCCGACCUUACACCUGAAGGCCGCCCAACAGGAAAAGUUACGAAAGCUCGAUUUCAGUCUGCAGAAAUAGGAAAAUGUACUCAAGUUGGAUGGGGAGUCGUACACCUAUACCGUGAUGAUAACGAUGCUGUUAAUUUUGAUACCCGAACUACUACAUACGAUGGAAA
antisense: UUUCCAUCGUAUGUAGUAGUUCGGGUAUCAAAAUUAACAGCAUCGUUAUCAUCACGGUAUAGGUGUACGACUCCCCAUCCAACUUGAGUACAUUUUCCUAUUUCUGCAGACUGAAAUCGAGCUUUCGUAACUUUUCCUGUUGGGCGGCCUUCAGGUGUAAGGUCGGAGGUGAAAUUAUUGGCAUAGCUUGCAGUGUUGCUUGACUGUUGCUGCAAGAUUUCCAUAUCACUUUGAGGGCAAUCUAUUUGGUUCUCUCUCUCAAUGUCAAACCCUACAAUUUCAGUUUUCCCAAAUCUCCAAUCCUUUUCUGCGUUUUUUAAGUCUUCCAAUAUAUUUAAAGCUCCUCUCCAUAUAGUCUUUGUAUCAGCUUUUGAAGCAUUACUUUUGCCGAU
% decrease =/− SE TP1: 3 ± 5%

B4: GS3930 (nucleic acid)
sense: CUAACGAGUGAUCGAAGCCCAUCUGAAAGAUUUUGAGUUAUGCUUUUACCAACUAUUACAGUAUCUGAGCUCAGUCGCGAGAGUAAAUCCCCGACUCGAUUGGCGUCAAAGAACUCGGCAUCUUGUACAAAUGUCCUUCGAAAUAAUUUUGAUCGGAGUCUUGAAAUUACUCUUUCUCCAACUAUUCUCAGAAUUAAUAUCCGUCCAUAAUUAGCUACAGCACCUAUUGAUAGUAUAAGCCCAAGAGCCCCGAAAAAUUGUUGAUUAUUAAGUUCAAAAAGUGUGUUUCCUUCUGAGUUUUUGGUUGCAAGGUCUAAUAUUUUACCGAUUGAAAAAGGAAUUGCCAUUGAUAUGGAUGAAGAUACUAAUAAAAAGAAAAAUGCCAAACUGAGC
antisense: GCUCAGUUUGGCAUUUUUCUUUUUAUUAGUAUCUUCAUCCAUAUCAAUGGCAAUUCCUUUUUCAAUCGGUAAAAUAUUAGACCUUGCAACCAAAAACUCAGAAGGAAACACACUUUUUGAACUUAAUAAUCAACAAUUUUUCGGGGCUCUUGGGCUUAUACUAUCAAUAGGUGCUGUAGCUAAUUAUGGACGGAUAUUAAUUCUGAGAAUAGUUGGAGAAAGAGUAAUUUCAAGACUCCGAUCAAAAUUAUUUCGAAGGACAUUUGUACAAGAUGCCGAGUUCUUUGACGCCAAUCGAGUCGGGGAUUUACUCUCGCGACUGAGCUCAGAUACUGUAAUAGUUGGUAAAAGCAUAACUCAAAAUCUUUCAGAUGGGCUUCGAUCACUCGUUAG
% decrease =/− SE TP1: 10 ± 4%

B5: GS1817: dsRNA trigger SEQ ID NO 139; gene target Cell division control protein 48 (nucleic acid)
DNA: GCTTCGCGAAAGTAAGGTGCAAGGAAAACATCAAAGAGGGAACCAGTAAGGCCTTCAACAGTATCTGCGATAGGAAGAACTGCGATACGTTTGGCGTATTTTATATCAGGACATGGATGTACTGTAACAATATCACCATGTTTAACCCTAAGGTTGTGTCGGACAACACGATTCATACGAGCACTCCCGTCATCTAAATCATCATCTGCGAGTACAATTAAAACAGTATCCTTTCGCTTCTTCCCCTTAACTAGGACAGTATCTCCACGAAAAAGCTGCAAAGTTTCCATGGTATTATTTGACAGTGCAATAACAGAGTTATCATCGTTGATGGCATCTGTTACAATTAAGGAATTTGGCTTTTTCTTCTTTTTTAAAATAGCAGTCGCAGTAGCATCAATCGTCTTTTGTTCAGCGCCAGAGGCATCCTCAAGTTTAACTGTTTTTTTACGAGTAGCATTGTCTTCAGACATAGTTGTGTAATAAAAGTTAAGAGGGCGTAATTTCCTAGAAAGAATATATCTACTATTAATTTATTGAGATCTTGGAATGAAGGTTTATCCGATAAAATCTGTAAATGATGGAGCTAATCTGAAG
% decrease =/− SE TP1: 52 ± 2% | % decrease =/− SE TP2: 49 ± 6%

B6: GS3934 (nucleic acid)
sense: UCUUCUUCAGUGGUAUGUGCAAGAGAUUGACGUCUAGAUGAACGUGUUGAUGGUGCAGUUACUACAGCAGUAGCUUCAACCGAUUUUCGACUCACUUUUCGCUUGUUUGAAACAGACGAAACUAAAGAAUUUGUGGAACUAGAUUUAGGUUUACGAGUAGUGGACCGUCCCUUACUUGUAUAGACUCUCUUUUUAAGUGUAGAAUCAUUCAAUGGCUGUAAAAAUGAAACUAAAUCUCCACAAAUAGUAGUAGGUGCAUCUGCUGAUAAUGCUUCAGGUAAAUCUAAUCUAGAUCCAAUUUCUGAUGUACUAAGUGAUAUAUUUGAAGAGGUAAUAUUACUUUGUAUUUCAGGUGUCUUUGAGGUCAUCUUUGAUGAAAUUACCAUUAGUUUUU
antisense: AAAAACUAAUGGUAAUUUCAUCAAAGAUGACCUCAAAGACACCUGAAAUACAAAGUAAUAUUACCUCUUCAAAUAUAUCACUUAGUACAUCAGAAAUUGGAUCUAGAUUAGAUUUACCUGAAGCAUUAUCAGCAGAUGCACCUACUACUAUUUGUGGAGAUUUAGUUUCAUUUUUACAGCCAUUGAAUGAUUCUACACUUAAAAAGAGAGUCUAUACAAGUAAGGGACGGUCCACUACUCGUAAACCUAAAUCUAGUUCCACAAAUUCUUUAGUUUCGUCUGUUUCAAACAAGCGAAAAGUGAGUCGAAAAUCGGUUGAAGCUACUGCUGUAGUAACUGCACCAUCAACACGUUCAUCUAGACGUCAAUCUCUUGCACAUACCACUGAAGAAGA
% decrease =/− SE TP1: 31 ± 5% | % decrease =/− SE TP2: 17 ± 6%

B7: GS3935 (nucleic acid)
sense: CACCGCAGGAAACAACACGAGUAAAAUCAUUUUCUUCAACAACAUCUUCUGCAGCAAAAAAAUUUUCUCGUGCACUCUUAUGGCGGUCAAUUUGUAGAGAUUGCUCAUCGAAGACAAUCUGACCAUCAACGAUGCGAAUUUUAGGACCAACCGGAGGAGCAGACGGCGGUGCGAUUUGGCUAUUUAAACUUGGCUCAGUCUUUCUACUUUCAUUUAGGGUAUAAUUGUCACCACUUUUUCCAUCUAUAUAAUCUUCAAGUUCAGGGUUAUCUCGCUUCAUCCUAGCUUUGAUAGCAUUUUGUUUCAUUCGUGCAAGUCGUCCCAUUAUCUCAUCGUGGUUUCUAGACUUUUUACCAAUACGAAGAUCAUGACAUAAGUCUUGCAUGGUAAUAACAGAA
antisense: UUCUGUUAUUACCAUGCAAGACUUAUGUCAUGAUCUUCGUAUUGGUAAAAAGUCUAGAAACCACGAUGAGAUAAUGGGACGACUUGCACGAAUGAAACAAAAUGCUAUCAAAGCUAGGAUGAAGCGAGAUAACCCUGAACUUGAAGAUUAUAUAGAUGGAAAAAGUGGUGACAAUUAUACCCUAAAUGAAAGUAGAAAGACUGAGCCAAGUUUAAAUAGCCAAAUCGCACCGCCGUCUGCUCCUCCGGUUGGUCCUAAAAUUCGCAUCGUUGAUGGUCAGAUUGUCUUCGAUGAGCAAUCUCUACAAAUUGACCGCCAUAAGAGUGCACGAGAAAAUUUUUUUGCUGCAGAAGAUGUUGUUGAAGAAAAUGAUUUUACUCGUGUUGUUUCCUGCGGUG
% decrease =/− SE TP1: 1 ± 5%
